PMC3799444
Residue numbers refer to the chain shown, from its start. Numbers in names are those of the source.

T1: Polλ Q243R (Homo sapiens, UniProt Q9UGP5 1-575, Q243R)
T1 sequence: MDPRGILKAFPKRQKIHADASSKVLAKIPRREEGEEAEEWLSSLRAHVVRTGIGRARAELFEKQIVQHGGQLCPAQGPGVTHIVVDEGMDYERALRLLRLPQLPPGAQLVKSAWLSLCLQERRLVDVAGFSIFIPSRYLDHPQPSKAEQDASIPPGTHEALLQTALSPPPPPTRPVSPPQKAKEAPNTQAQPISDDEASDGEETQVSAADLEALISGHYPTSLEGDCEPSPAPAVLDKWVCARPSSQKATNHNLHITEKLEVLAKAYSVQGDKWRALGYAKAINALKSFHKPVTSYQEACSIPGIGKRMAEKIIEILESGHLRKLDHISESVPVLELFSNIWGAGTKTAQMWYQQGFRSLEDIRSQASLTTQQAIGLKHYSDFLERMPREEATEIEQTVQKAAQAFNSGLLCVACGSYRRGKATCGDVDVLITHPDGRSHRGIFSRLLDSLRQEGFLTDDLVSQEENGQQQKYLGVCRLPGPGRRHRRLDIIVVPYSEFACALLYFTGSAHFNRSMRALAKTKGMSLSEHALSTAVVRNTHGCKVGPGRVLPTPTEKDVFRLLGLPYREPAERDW

T2: Polλ W239Y (Homo sapiens, UniProt Q9UGP5 1-575, W239Y)
T2 sequence: T1 sequence with W239Y, R243Q

B1: 1 nt gap Sp1C/T13C/DG1-P (dsDNA)
DNA 1: GATCACAGTGAGTAC
DNA 2: AGAAGTGTATCTCGTACTCACTGTGATC
DNA 3: AGATACACTTCT
modifications: 5'-phosphate on DG1-P
B2: 5 nt gap FP-P/FP-T5/FP-D (dsDNA)
DNA 1: GGCCACGCAATGTTGACGTTTTTCGACAAGACCTCAGTAT
DNA 2: GGCAGCTTGGATCTTGTCGAAAAACGTCAACATTCGCCTAGGCTTCGGCAGCATATACTGAGGTCTTGTCGAAAAACGTCAACATTGCGTGGCC
DNA 3: GCCGAAGCCTAGGCGAATGTTGACGTTTTTCGACAAGATCCAAGCTGCC
modifications: 5'-phosphate on FT-D

Columns and labels:
Assay in all cases: EMSA
Polµ WT = Polµ WT (Homo sapiens, UniProt Q9NP87)
Chain of Polµ WT (Q9NP87 whole entry): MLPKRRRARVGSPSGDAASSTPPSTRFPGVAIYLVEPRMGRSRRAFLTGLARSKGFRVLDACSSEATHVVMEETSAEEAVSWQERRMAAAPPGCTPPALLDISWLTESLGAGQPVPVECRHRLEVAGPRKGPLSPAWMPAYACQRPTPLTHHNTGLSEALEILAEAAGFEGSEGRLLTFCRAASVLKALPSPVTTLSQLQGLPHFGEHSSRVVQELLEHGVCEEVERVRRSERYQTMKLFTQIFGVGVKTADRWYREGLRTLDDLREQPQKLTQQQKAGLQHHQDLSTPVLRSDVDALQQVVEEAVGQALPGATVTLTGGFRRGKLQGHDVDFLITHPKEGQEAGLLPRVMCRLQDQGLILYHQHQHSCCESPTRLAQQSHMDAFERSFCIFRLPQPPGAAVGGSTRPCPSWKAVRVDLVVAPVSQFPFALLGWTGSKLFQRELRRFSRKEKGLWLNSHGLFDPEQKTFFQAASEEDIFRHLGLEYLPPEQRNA

Polλ Q243R = molecular target: T1, Polλ Q243R
Polλ W239Y = molecular target: T2, Polλ W239Y

| Binder | binding result (Polµ WT) | binding result (Polλ Q243R) | binding result (Polλ W239Y) |
| --- | --- | --- | --- |
| B1 | binds |  |  |
| B2 |  | binds | binds |
